Test results reported in article PMC10128029.

Experiments:
Experiment in all cases: EMSA
[1] = tested on: TilS N445K (Burkholderia cenocepacia HI2424); conditions: unmodified in vitro transcript; EMSA: 3.5 nM 32P-tRNA, 220 nM-39.0 µM TilS, 100 mM Tris-HCl pH 7.8, 5 mM DTT, 10 mM MgCl2, 10 mM KCl, 10% glycerol, 37 C, 30 min; native 10% PAGE
[2] = tested on: TilS WT (Burkholderia cenocepacia HI2424); conditions: 10 mM Mg2+; unmodified in vitro transcript; EMSA: 3.5 nM 32P-tRNA, 220 nM-39.0 µM TilS, 100 mM Tris-HCl pH 7.8, 5 mM DTT, 10 mM MgCl2, 10 mM KCl, 10% glycerol, 37 C, 30 min; native 10% PAGE
[3] = tested on: TilS N274Y (Burkholderia cenocepacia HI2424); conditions: unmodified in vitro transcript; EMSA: 3.5 nM 32P-tRNA, 220 nM-39.0 µM TilS, 100 mM Tris-HCl pH 7.8, 5 mM DTT, 10 mM MgCl2, 10 mM KCl, 10% glycerol, 37 C, 30 min; native 10% PAGE
[4] = tested on: TilS A244T (Burkholderia cenocepacia HI2424); conditions: unmodified in vitro transcript; EMSA: 3.5 nM 32P-tRNA, 220 nM-39.0 µM TilS, 100 mM Tris-HCl pH 7.8, 5 mM DTT, 10 mM MgCl2, 10 mM KCl, 10% glycerol, 37 C, 30 min; native 10% PAGE
[5] = tested on: TilS P421L (Burkholderia cenocepacia HI2424); conditions: unmodified in vitro transcript; EMSA: 3.5 nM 32P-tRNA, 220 nM-39.0 µM TilS, 100 mM Tris-HCl pH 7.8, 5 mM DTT, 10 mM MgCl2, 10 mM KCl, 10% glycerol, 37 C, 30 min; native 10% PAGE

tRNAIle2 (CAU)
Kd [1]: 3.1 µM
Kd [2]: 2.6 µM
Kd [3]: 3.3 µM
Kd [4]: 4.6 µM
Kd [5]: 4.5 µM
